We go through 1 molecule from CN109897111A (HANGZHOU HANSI BIOLOGICAL MEDICINE CO LTD, dated 2019).

In assay [1] the target is hPD-1-his抗原 (human, UniProt Q15116 25-167, limits assumed). Description: ELISA, hPD-1-his coated 0.25 μg/ml.
Assay [2] addresses T1, hPD-1-hIgGFc抗原 (human, UniProt Q15116 25-167, limits assumed). Nature of the assay: competition ELISA, hPD-1-hIgGFc coated, competitor PDL1-mIgG2aFc 0.6 μg/ml. (In general: ELISA stands for enzyme-linked immunosorbent assay.)
Assay [3] deals with T1, hPD-1-hIgGFc抗原. Nature of the assay: competition ELISA, hPD-1-hIgGFc coated, competitor PDL2-his tag 0.6 μg/ml.

T1 sequence (Q15116 25-167 limits assumed): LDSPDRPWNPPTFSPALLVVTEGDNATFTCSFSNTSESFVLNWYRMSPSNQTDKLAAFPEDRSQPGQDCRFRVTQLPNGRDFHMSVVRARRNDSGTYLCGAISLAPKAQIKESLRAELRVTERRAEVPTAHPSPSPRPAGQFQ
Chain of hPD-1-his抗原 (Q15116 25-167 limits assumed): as above

B1: 人源化抗体H8 (抗PD-1的IgG类抗体) (antibody, V domains shown)
VH: EVQLVQSGGGLVQPGGSLKLSCAASGFTFSSYGMSWVRQAPGKGLDWVATISGGGRDTYYPDSVKGRFTISRDNSKNNLYLQMNSLRAEDTALYYCARQKGEAWFAYWGQGTLVTVSA
VL: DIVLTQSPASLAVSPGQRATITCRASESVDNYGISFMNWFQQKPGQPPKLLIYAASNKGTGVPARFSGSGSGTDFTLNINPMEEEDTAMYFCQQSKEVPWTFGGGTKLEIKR
notes: HX009-5 is H8 with linker-SIRPA added to the C-terminus of the heavy chain, and both share the light chain; also called HX008
As a reminder, the EC50 is the concentration giving half of the maximal effect. As a reminder, the IC50 is the midpoint of a concentration-inhibition curve. Higher therefore signals lower potency. For B1, the midpoint of the response in assay [1], the EC50, lay at 0.05 nM. The IC50 in assay [2] was found to be 1 nM; in assay [3], 2.7 nM.
